Residue numbers refer to the chain shown, from its start.
B1: CURA2 MAb 1.46 (antibody, IgG2, V domains shown)
VH: QVQLVQSGAEVKKPGASVKVSCKASGYSFTSYDINWVRQATGQGLEWMGWMNPNNGNTGYAQKFQGRVTMTRNTSISTAYMELSSLRSEDTAVYYCARDIVVVVTATDYYYGMDVWGQGTTVTVSS
VL: DIQMTQSPSSLSASVGDRVTITCRASQGIRNDLGWYQQKPGKAPKRLIFAASSLPSGVPSRFSGSGSGTEFTLTISSLQPEDFATYYCLQHSGYPPTFGQGTKVEIK
B2: CURA2 MAb 1.19 (antibody, IgG2, V domains shown)
VH: QVQLVQSGAEVKKPGASVKVSCKASGYTFTSYDINWVRQATGQGLEWMGWMNPNSGNTGYAQKFQGRVTMTRNTSISTAYMELSSLRSEDTAVYYCARDVMITFGGVIVHYGMDVWGQGTTVTVSS
VL: B1 VL with F49Y, P55Q, E70D, S92N, G93S, Y94D, P96C, T97S, V104L, K107R
B3: CURA2 MAb 1.18 (antibody, IgG2, V domains shown)
VH: QVQLVQSGAEVKKPGASVKVSCKASGYTFTSYDINWVRQATGQGLEWMGWMNPNSGNTGYAQKFQGRVTMTRNTSISTAYMELSSLRSEDTAVYYCAREGIAVAGTYYYYYGMDVWGQGTTVTVSS
VL: B1 VL with F49Y, P55Q, Y87F, S92N, G93S, P96F, Q100P, E105D
B4: CURA2 MAb 1.51 (antibody, IgG2, V domains shown)
VH: EVQLVQSGAEVKKPGESLKISCKGSGYSFTSYWIGWVRQMPGKGLEWMGIIYPGDSDAKYSPSFQGQVTISADKSISTAYLQWSSLKASDTAMYYCARHYDYVWRNYRYTGWFDPWGQGTLVTVSS
VL: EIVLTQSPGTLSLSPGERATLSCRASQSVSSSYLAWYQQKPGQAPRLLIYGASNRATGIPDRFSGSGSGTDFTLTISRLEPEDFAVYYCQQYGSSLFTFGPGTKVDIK
B5: CURA2 MAb 1.29 (antibody, IgG2, V domains shown)
VH: EVQLVQSGAEVKKPGESLKISCKGSGYSFTSYWIGWVRQMPGKGLEWMGIIYPGDSDTRYSPSFQGQATISADKSISTAYLQWSSLKASDTAMYYCARHVDVGATIGGYYYYYHGMDVWGQGTTVTVSS
VL: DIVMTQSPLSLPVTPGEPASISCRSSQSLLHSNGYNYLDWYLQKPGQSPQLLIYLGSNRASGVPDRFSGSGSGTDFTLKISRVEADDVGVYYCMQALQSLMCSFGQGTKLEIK
B6: CURA2 MAb 6.4 (antibody, IgG2, V domains shown)
VH: QVQLVQSGAEVKKPGASVKVSCKASGYTFTSYDINWVRQATGQGLEWMGWINPNSGNTDYAQKFQGRVTMTRDTSISTAYMELSSLRSEDTAIYYCVRGFGYSYNYDYYYGMDVWGQGTTVTVSS
VL: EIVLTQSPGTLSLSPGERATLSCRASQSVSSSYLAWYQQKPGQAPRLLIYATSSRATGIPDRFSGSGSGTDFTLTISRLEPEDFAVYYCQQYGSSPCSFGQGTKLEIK
B7: CURA2 MAb 1.45 (antibody, IgG2, V domains shown)
VH: B6 VH with I51M, D59G, D73N, I93V, V97A, F100S, N105G
VL: DIQMTQSPSSLSASVGDRVTINCRASQGISNDLAWYQQKPGKVPKLLIYAASTLQLGVPSRFSGSGSGTDFTLTISSLQPEDVATYYCQKYNSAPFTFGPGTKVDIK

These binders were tested against p35 form of the 30664188.0.99 gene product (active fragment of PDGFD) (human, UniProt Q9GZP0 250-370) (assay: cell-based or functional assay).

Going from B1 to B2, the “IC50 (ng/mL), BrdU incorporation assay on NIH 3T3 cells” value (“IC50 (ng/mL), BrdU incorporation assay” below) falls from 500 ng/mL to 75 ng/mL (6.7-fold).

First: B3
Second: B4
The “IC50 (ng/mL), BrdU incorporation assay” value of the first is higher: greater than 1000 ng/mL for the first, 1000 ng/mL for the second.

Going from B5 to B6, the “IC50 (ng/mL), BrdU incorporation assay” value falls from 150 ng/mL to 75 ng/mL (2-fold).

B7 was tested, and the “IC50 (ng/mL), BrdU incorporation assay” value was 750 ng/mL.

From patent US20060293506A1 (Amgen, published 2006)
